Reference: article PMC4407889, “Improved Catenated Structures of Bovine Peroxiredoxin III F190L Reveal Details of Ring-Ring Interactions and a Novel Conformational State” (PLoS ONE, 2015)

Biological target: the molecule itself
Test: crystal structure; reduced form, crystallized in the presence of DTT; sitting-drop vapor diffusion, 16°C, 34% (v/v) 2-methyl-1,3-propanediol, 0.1 M phosphate-citrate pH 4.2; protein 15 mg/ml; space group P2(1)2(1)2; 2.2 Å

B1: bovine peroxiredoxin III F190L (enzyme, UniProt P35705 63-257, looked up)
chain: APAVTQHAPYFKGTAVVSGEFKEISLDDFKGKYLVLFFYPLDFTFVCPTEIIAFSDKASEFHDVNCEVVAVSVDSHFSHLAWINTPRKNGGLGHMNIALLSDLTKQISRDYGVLLEGPGLALRGLFIIDPNGVIKHLSVNDLPVGRSVEETLRLVKAFQFVEAHGEVCPANWTPESPTIKPHPTASREYLEKVNQ
notes: Mitochondrial 2-cys peroxiredoxin III (PrxIII), bovine, lacking its N-terminal 62 amino acid mitochondrial targeting signal; residue 1 is the N-terminal alanine of the mature protein; Construct in pET14b; Twelve chains form one (α2)6 dodecameric toroid, and two toroids interlock as a two-ring catenane in the crystal; In the oxidized form Cys47 of one monomer is disulfide-bonded to Cys168 of its …
stoichiometry N: 12
